Earlier results as cited in US6022890A, “Immunosuppressant tetracyclic triterpenes” (Merck & Co., Inc., priority 1998, dated 2000).
pIC50: −log10 of the molar value.

Molecular target: T1, Kv 1.3 channels (CHO cells transfected with Kv 1.3 channels) (Homo sapiens, UniProt P22001)
T1 construct: expressed in transfected cells; host or cells: CHO cells
Conditions: stated for the reference blocker that defines the efflux window

T1 sequence (P22001 whole entry): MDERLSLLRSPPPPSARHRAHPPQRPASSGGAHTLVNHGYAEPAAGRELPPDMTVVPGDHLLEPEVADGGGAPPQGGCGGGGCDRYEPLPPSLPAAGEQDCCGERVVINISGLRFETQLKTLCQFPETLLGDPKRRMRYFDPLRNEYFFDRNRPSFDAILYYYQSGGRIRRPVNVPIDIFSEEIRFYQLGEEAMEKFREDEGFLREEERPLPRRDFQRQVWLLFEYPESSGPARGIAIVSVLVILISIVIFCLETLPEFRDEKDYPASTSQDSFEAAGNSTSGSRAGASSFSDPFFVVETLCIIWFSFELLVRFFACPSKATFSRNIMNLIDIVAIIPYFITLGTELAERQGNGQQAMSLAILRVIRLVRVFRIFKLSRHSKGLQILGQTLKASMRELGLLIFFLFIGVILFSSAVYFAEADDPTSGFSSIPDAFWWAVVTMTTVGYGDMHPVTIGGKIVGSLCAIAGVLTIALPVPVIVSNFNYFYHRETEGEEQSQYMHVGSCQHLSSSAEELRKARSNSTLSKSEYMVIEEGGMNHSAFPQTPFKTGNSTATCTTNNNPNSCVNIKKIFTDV

Substance: margatoxin (TIINVKCTSPKQCLPPCKAQFGQSAGAKCMNGKCKCYPH; UniProt P40755 1-39, looked up)
- pIC50: 10.00
